The target of series [1] is TEBP-2-His5 (Caenorhabditis elegans) (UniProt Q22429). As to the kind of experiment: fluorescence polarization. The following applies: FP: 20 mM HEPES pH 7.0, 100 mM NaCl, 5% glycerol, 20 nM probe, 10 min at RT; pull-down: 50 mM Tris/HCl pH 7.5, 150 mM NaCl, 0.5% NP-40, 5 mM MgCl2, 1 mM DTT …. For orientation: In fluorescence polarisation assays a small probe gives low polarisation when free and higher when bound to something large.

In series [2] the target is TEBP-1-His5 (Caenorhabditis elegans) (UniProt O62329). As to the kind of experiment: fluorescence polarization. The following applies: FP: 20 mM HEPES pH 7.0, 100 mM NaCl, 5% glycerol, 20 nM probe, 10 min at RT; pull-down: 50 mM Tris/HCl pH 7.5, 150 mM NaCl, 0.5% NP-40, 5 mM MgCl2, 1 mM DTT ….

Here are results for 1 sequence from paper PMC8113555.

TEBP-2-His5 (Caenorhabditis elegans), sequence (Q22429 entry or part of it): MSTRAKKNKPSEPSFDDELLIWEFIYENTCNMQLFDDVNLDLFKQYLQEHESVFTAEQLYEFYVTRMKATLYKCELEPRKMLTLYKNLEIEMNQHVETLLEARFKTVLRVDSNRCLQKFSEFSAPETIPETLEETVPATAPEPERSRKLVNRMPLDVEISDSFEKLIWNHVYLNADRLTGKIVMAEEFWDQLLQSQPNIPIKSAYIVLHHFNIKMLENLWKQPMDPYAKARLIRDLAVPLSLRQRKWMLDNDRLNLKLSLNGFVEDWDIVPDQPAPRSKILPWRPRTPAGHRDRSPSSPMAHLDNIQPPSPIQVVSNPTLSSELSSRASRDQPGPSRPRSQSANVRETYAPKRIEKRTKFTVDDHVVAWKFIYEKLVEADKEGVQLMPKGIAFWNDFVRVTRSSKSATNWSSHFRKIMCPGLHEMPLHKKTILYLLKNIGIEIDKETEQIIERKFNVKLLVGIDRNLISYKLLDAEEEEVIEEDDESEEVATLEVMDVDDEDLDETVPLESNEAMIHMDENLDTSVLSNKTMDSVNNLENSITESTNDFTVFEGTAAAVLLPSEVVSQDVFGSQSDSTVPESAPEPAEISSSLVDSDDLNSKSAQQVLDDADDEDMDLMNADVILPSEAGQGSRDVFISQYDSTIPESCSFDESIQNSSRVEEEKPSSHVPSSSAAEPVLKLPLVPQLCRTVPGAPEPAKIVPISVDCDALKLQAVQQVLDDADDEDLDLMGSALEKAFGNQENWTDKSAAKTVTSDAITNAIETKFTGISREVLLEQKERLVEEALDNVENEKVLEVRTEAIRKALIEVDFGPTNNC

One may read the Kd as the free concentration of one partner at which half of the binding sites on the other are occupied at equilibrium, for simple one-to-one binding. Read a low Kd as higher affinity. For “CTGTTAGGCTTAGGCTTAG (double strand) [2.5x TTAGGC ds]”, the equilibrium dissociation constant (Kd) in series [1] was determined as 37.8 nM; in series [2], 129 nM.
